The source of these data is IntAct's records for PubMed 17350572.

To fix the notation:
B1: Programmed cell death 6-interacting protein (Homo sapiens), Q8WUM4 (parent)
chain: MATFISVQLKKTSEVDLAKPLVKFIQQTYPSGGEEQAQYCRAAEELSKLRRAAVGRPLDKHEGALETLLRYYDQICSIEPKFPFSENQICLTFTWKDAFDKGSLFGGSVKLALASLGYEKSCVLFNCAALASQIAAEQNLDNDEGLKIAAKHYQFASGAFLHIKETVLSALSREPTVDISPDTVGTLSLIMLAQAQEVFFLKATRDKMKDAIIAKLANQAADYFGDAFKQCQYKDTLPKEVFPVLAAKHCIMQANAEYHQSILAKQQKKFGEEIARLQHAAELIKTVASRYDEYVNVKDFSDKINRALAAAKKDNDFIYHDRVPDLKDLDPIGKATLVKSTPVNVPISQKFTDLFEKMVPVSVQQSLAAYNQRKADLVNRSIAQMREATTLANGVLASLNLPAAIEDVSGDTVPQSILTKSRSVIEQGGIQTVDQLIKELPELLQRNREILDESLRLLDEEEATDNDLRAKFKERWQRTPSNELYKPLRAEGTNFRTVLDKAVQADGQVKECYQSHRDTIVLLCKPEPELNAAIPSANPAKTMQGSEVVNVLKSLLSNLDEVKKEREGLENDLKSVNFDMTSKFLTALAQDGVINEEALSVTELDRVYGGLTTKVQESLKKQEGLLKNIQVSHQEFSKMKQSNNEANLREEVLKNLATAYDNFVELVANLKEGTKFYNELTEILVRFQNKCSDIVFARKTERDELLKDLQQSIAREPSAPSIPTPAYQSSPAGGHAPTPPTPAPRTMPPTKPQPPARPPPPVLPANRAPSATAPSPVGAGTAAPAPSQTPGSAPPPQAQGPPYPTYPGYPGYCQMPMPMGYNPYAYGQYNMPYPPVYHQSPGQAPYPGPQQPSYPFPQPPQQSYYPQQ
B2: Programmed cell death 6-interacting protein (Homo sapiens), Q8WUM4 (parent)
chain: B1 chain
partner: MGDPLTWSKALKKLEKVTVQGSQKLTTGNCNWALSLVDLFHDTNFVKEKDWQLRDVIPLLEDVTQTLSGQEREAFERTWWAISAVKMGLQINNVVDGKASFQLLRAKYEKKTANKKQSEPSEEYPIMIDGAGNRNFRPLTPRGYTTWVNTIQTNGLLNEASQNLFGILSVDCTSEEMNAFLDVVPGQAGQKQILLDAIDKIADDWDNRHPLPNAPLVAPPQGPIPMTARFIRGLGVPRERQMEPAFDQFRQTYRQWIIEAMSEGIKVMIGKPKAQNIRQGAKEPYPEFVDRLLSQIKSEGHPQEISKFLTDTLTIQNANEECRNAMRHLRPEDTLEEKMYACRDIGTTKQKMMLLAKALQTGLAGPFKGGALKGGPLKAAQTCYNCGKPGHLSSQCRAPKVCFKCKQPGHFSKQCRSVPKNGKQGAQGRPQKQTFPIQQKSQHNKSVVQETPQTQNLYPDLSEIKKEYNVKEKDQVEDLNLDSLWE
B3: Gag polyprotein (Equine infectious anemia virus (isolate 1369) (EIAV)), P69730 (parent)
chain: B2 partner
B4: Programmed cell death 6-interacting protein (Homo sapiens), Q8WUM4 (parent)
chain: B1 chain
partner: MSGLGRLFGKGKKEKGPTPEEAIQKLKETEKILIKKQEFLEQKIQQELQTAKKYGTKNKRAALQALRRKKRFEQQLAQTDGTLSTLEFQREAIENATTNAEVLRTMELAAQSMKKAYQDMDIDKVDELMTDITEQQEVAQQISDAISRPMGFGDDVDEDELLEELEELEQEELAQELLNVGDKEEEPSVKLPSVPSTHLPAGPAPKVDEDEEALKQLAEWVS

The variants in the first assay derive from B1. Conditions: with gag_hv1b1 gag.
In the case of I683D, the “effect of a mutation on the interaction” value is listed as “decreasing interaction”.

Regarding V498D, the “effect of a mutation on the interaction” value is recorded as “disrupting interaction”.

Consider F676D, for which the “effect of a mutation on the interaction” value is given as “disrupting interaction”.

The variants in a further assay derive from B1. Conditions: with ts101_human TSG101, Q99816.
Chain of ts101_human TSG101, Q99816 (Q99816 whole entry): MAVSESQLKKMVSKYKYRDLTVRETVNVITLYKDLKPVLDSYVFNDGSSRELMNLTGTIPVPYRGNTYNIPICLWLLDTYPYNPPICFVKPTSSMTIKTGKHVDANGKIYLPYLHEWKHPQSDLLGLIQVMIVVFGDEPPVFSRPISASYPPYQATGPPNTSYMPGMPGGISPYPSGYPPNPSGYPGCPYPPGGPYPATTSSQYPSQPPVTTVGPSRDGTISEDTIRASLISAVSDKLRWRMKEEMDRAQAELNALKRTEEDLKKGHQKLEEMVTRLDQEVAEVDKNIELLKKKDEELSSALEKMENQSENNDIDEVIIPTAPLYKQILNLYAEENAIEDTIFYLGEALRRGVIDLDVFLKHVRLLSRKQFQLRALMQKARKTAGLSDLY
As for P720L, the “effect of a mutation on the interaction” value is given as “disrupting interaction”.

In a further assay the parent is B1. The settings on record: with sh3g2_human SH3GL2, Q99962.
Chain of sh3g2_human SH3GL2, Q99962 (Q99962 whole entry): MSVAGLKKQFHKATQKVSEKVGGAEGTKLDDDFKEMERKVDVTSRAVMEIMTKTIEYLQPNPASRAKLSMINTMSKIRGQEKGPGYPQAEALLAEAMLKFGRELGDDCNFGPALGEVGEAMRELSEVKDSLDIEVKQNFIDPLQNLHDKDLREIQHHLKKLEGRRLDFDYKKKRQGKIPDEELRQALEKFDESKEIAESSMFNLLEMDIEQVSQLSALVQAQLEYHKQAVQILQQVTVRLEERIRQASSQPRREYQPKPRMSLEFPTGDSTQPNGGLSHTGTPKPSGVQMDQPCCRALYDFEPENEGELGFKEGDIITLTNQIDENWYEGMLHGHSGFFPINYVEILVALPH
Take R757A;P758A: the “effect of a mutation on the interaction” value is recorded as “decreasing interaction”.

In another assay the parent is B2. The settings on record: with gag_eiav9 gag.
As for V498D, the “effect of a mutation on the interaction” value is recorded as “decreasing interaction”.

In the case of F676D, the “effect of a mutation on the interaction” value is “disrupting interaction”.

On to I683D, for which the “effect of a mutation on the interaction” value is reported as “decreasing interaction”.

Another assay covers variants of B3. Conditions: with pdc6i_human PDCD6IP.
MGDPLTWSKALKKLEKVTVQGSQKLTTGNCNWALSLVDLFHDTNFVKEKDWQLRDVIPLLEDVTQTLSGQEREAFERTWWAISAVKMGLQINNVVDGKASFQLLRAKYEKKTANKKQSEPSEEYPIMIDGAGNRNFRPLTPRGYTTWVNTIQTNGLLNEASQNLFGILSVDCTSEEMNAFLDVVPGQAGQKQILLDAIDKIADDWDNRHPLPNAPLVAPPQGPIPMTARFIRGLGVPRERQMEPAFDQFRQTYRQWIIEAMSEGIKVMIGKPKAQNIRQGAKEPYPEFVDRLLSQIKSEGHPQEISKFLTDTLTIQNANEECRNAMRHLRPEDTLEEKMYACRDIGTTKQKMMLLAKALQTGLAGPFKGGALKGGPLKAAQTCYNCGKPGHLSSQCRAPKVCFKCKQPGHFSKQCRSVPKNGKQGAQGRPQKQTFPIQQKSQHNKSVVQETPQTQNLSRDLSEIKKEYNVKEKDQVEDLNLDSLWE [Y458S;P459R]: the “effect of a mutation on the interaction” value is listed as “decreasing interaction”.

Variants of B4 are the subject of a further assay. Conditions: with chm4a_human CHMP4A.
As for I212D, the “effect of a mutation on the interaction” value was “disrupting interaction”.
